# Reference: patent US20250171562A1
# B1: NIgG4F6A1(G4S)3 (Fc fusion)
# chain 1: DVQLQESGGGLVQAGGSLRLSCAASGLTFGSYDMGWYRQAPGKQRELVGRIRNDGITYYADSVKGRFTMSRDNAKNTVYLQMNSLKPEDTAVYYCAADGTGLGHYDYWGQGTQVTVSGGGGSGGGGSGGGGSGPPCPPCPAPEFLGGPSVFLFPPKPKDTLMISRTPEVTCVVVDVSQEDPEVQFNWYVDGVEVHNAKTKPREEQFNSTYRVVSVLTVLHQDWLNGKEYKCKVSNKGLPSSIEKTISKAKGQPREPQVYTLPPCQEEMTKNQVSLWCLVKGFYPSDIAVEWESNGQPENNYKTTPPVLDSDGSFFLYSRLTVDKSRWQEGNVFSCSVMHEALHNHYTQKSLSLSLGK
# chain 2: EVQLLESGGGLVQPGGSLRLSCAASGFTFGNYDMAWVRQAPGKRPEWVSSIDTGGDITHYADSVKGRFTISRDNAKNTLYLQMNSLRPEDTAVYWCATDEEYALGPNEFDYYGQGTLVTVSSGGGGSGGGGSGGGGSGPPCPPCPAPEFLGGPSVFLFPPKPKDTLMISRTPEVTCVVVDVSQEDPEVQFNWYVDGVEVHNAKTKPREEQFNSTYRVVSVLTVLHQDWLNGKEYKCKVSNKGLPSSIEKTISKAKGQPREPQVCTLPPSQEEMTKNQVSLSCAVKGFYPSDIAVEWESNGQPENNYKTTPPVLDSDGSFFLVSRLTVDKSRWQEGNVFSCSVMHEALHNHYTQKSLSLSLGK
# B2: CIgG4F6A1(RS) (Fc fusion)
# chain 1: GPPCPPCPAPEFLGGPSVFLFPPKPKDTLMISRTPEVTCVVVDVSQEDPEVQFNWYVDGVEVHNAKTKPREEQFNSTYRVVSVLTVLHQDWLNGKEYKCKVSNKGLPSSIEKTISKAKGQPREPQVYTLPPCQEEMTKNQVSLWCLVKGFYPSDIAVEWESNGQPENNYKTTPPVLDSDGSFFLYSRLTVDKSRWQEGNVFSCSVMHEALHNHYTQKSLSLSLGKRSDVQLQESGGGLVQAGGSLRLSCAASGLTFGSYDMGWYRQAPGKQRELVGRIRNDGITYYADSVKGRFTMSRDNAKNTVYLQMNSLKPEDTAVYYCAADGTGLGHYDYWGQGTQVTVS
# chain 2: GPPCPPCPAPEFLGGPSVFLFPPKPKDTLMISRTPEVTCVVVDVSQEDPEVQFNWYVDGVEVHNAKTKPREEQFNSTYRVVSVLTVLHQDWLNGKEYKCKVSNKGLPSSIEKTISKAKGQPREPQVCTLPPSQEEMTKNQVSLSCAVKGFYPSDIAVEWESNGQPENNYKTTPPVLDSDGSFFLVSRLTVDKSRWQEGNVFSCSVMHEALHNHYTQKSLSLSLGKRSEVQLLESGGGLVQPGGSLRLSCAASGFTFGNYDMAWVRQAPGKRPEWVSSIDTGGDITHYADSVKGRFTISRDNAKNTLYLQMNSLRPEDTAVYWCATDEEYALGPNEFDYYGQGTLVTVSS
# B3: NIgG4F6A1(G4S)2 (Fc fusion)
# chain 1: DVQLQESGGGLVQAGGSLRLSCAASGLTFGSYDMGWYRQAPGKQRELVGRIRNDGITYYADSVKGRFTMSRDNAKNTVYLQMNSLKPEDTAVYYCAADGTGLGHYDYWGQGTQVTVSGGGGSGGGGSGPPCPPCPAPEFLGGPSVFLFPPKPKDTLMISRTPEVTCVVVDVSQEDPEVQFNWYVDGVEVHNAKTKPREEQFNSTYRVVSVLTVLHQDWLNGKEYKCKVSNKGLPSSIEKTISKAKGQPREPQVYTLPPCQEEMTKNQVSLWCLVKGFYPSDIAVEWESNGQPENNYKTTPPVLDSDGSFFLYSRLTVDKSRWQEGNVFSCSVMHEALHNHYTQKSLSLSLGK
# chain 2: EVQLLESGGGLVQPGGSLRLSCAASGFTFGNYDMAWVRQAPGKRPEWVSSIDTGGDITHYADSVKGRFTISRDNAKNTLYLQMNSLRPEDTAVYWCATDEEYALGPNEFDYYGQGTLVTVSSGGGGSGGGGSGPPCPPCPAPEFLGGPSVFLFPPKPKDTLMISRTPEVTCVVVDVSQEDPEVQFNWYVDGVEVHNAKTKPREEQFNSTYRVVSVLTVLHQDWLNGKEYKCKVSNKGLPSSIEKTISKAKGQPREPQVCTLPPSQEEMTKNQVSLSCAVKGFYPSDIAVEWESNGQPENNYKTTPPVLDSDGSFFLVSRLTVDKSRWQEGNVFSCSVMHEALHNHYTQKSLSLSLGK
# Target: mixture of three Der p 2 specific recombinant human IgE clones H10, H12, P4E (human) (UniProt P01854)
# Assay: RBL-SX38 IgE displacement, FACS
# Sequence of mixture of three Der p 2 specific recombinant human IgE clones H10, H12, P4E (human) (P01854 other isoform, or with tags, fused parts or gaps): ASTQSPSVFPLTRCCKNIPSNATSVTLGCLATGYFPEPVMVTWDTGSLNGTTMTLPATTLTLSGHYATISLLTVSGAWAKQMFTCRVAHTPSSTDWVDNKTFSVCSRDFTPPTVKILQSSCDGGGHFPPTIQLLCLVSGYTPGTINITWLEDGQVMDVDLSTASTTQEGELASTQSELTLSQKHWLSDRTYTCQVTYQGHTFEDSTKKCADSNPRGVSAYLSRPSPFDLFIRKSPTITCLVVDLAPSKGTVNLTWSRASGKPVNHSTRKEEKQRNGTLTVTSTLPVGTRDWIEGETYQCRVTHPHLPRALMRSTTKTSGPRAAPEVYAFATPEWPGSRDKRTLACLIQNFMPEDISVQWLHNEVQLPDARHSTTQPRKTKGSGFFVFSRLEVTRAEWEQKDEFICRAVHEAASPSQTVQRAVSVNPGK
Binder,EC50 [nM],Max effect/effect 1 µM [%]
B1,2.7,87
B2,–,96
B3,2.3,76
